Results taken from the supplement of paper PMC5998384.

Legend:
HeLa Kyoto [1] = assay: solubility in G1/S (NP-40 vs SDS abundance) (log2 ratio); higher = more soluble; conditions: cell cycle stage: G1/S
HeLa Kyoto [2] = assay: solubility change mitosis vs G1/S (difference of NP-40 vs SDS log2 ratios) (log2 ratio difference); higher = more soluble in mitosis
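Wherever solubility change mitosis vs G1/S (difference of NP-40 vs SDS log2 ratios) is given: synchronized HeLa Kyoto cells (double thymidine block for G1/S, nocodazole release for mitosis), protein amounts in NP-40 versus SDS lysates quantified by mass spectrometry, three biological replicates.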
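Wherever solubility in G1/S (NP-40 vs SDS abundance) is given: HeLa Kyoto cells arrested at G1/S by double thymidine block, proteins quantified by TMT10plex mass spectrometry in mild NP-40 versus SDS extracts, three biological replicates.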

Sequence	solubility in G1/S (log2) (HeLa Kyoto [1])	solubility change mitosis (log2) (HeLa Kyoto [2])
MDRDLLRQSLNCHGSSLLSLLRSEQQDNPHFRSLLGSAAEPARGPPPQHPLQGRKEKRVDNIEIQKFISKKADLLFALSWKSDAPATSEINEDSEDHYAIMPPLEQFMEIPSMDRRELFFRDIERGDIVIGRISSIREFGFFMVLICLGSGIMRDIAHLEITALCPLRDVPSHSNHGDPLSYYQTGDIIRAGIKDIDRYHEKLAVSLYSSSLPPHLSGIKLGVISSEELPLYYRRSVELNSNSLESYENVMQSSLGFVNPGVVEFLLEKLGIDESNPPSLMRGLQSKNFSEDDFASALRKKQSASWALKCVKIGVDYFKVGRHVDAMNEYNKALEIDKQNVEALVARGALYATKGSLNKAIEDFELALENCPTHRNARKYLCQTLVERGGQLEEEEKFLNAESYYKKALALDETFKDAEDALQKLHKYMQKSLELREKQAEKEEKQKTKKIETSAEKLRKLLKEEKRLKKKRRKSTSSSSVSSADESVSSSSSSSSSGHKRHKKHKRNRSESSRSSRRHSSRASSNQIDQNRKDECYPVPANTSASFLNHKQEVEKLLGKQDRLQYEKTQIKEKDRCPLSSSSLEIPDDFGGRSEDPRDFYNSYKTQAGSSKTEKPYKSERHFSSRRNSSDSFCRNSEDKIYGYRRFEKDIEGRKEHYRRWEPGSVRHSTSPASSEYSWKSVEKYKKYAHSGSRDFSRHEQRYRLNTNQGEYEREDNYGEDIKTEVPEEDALSSKEHSESSVKKNLPQNLLNIFNQIAEFEKEKGNKSKN [TTC14]	-0.392	0.329
MDRGQPSLEPAAAAPRASGRCVIAPVRAVLRLRRRVCVLRKRRLLQPGGGPDVGTGAPRPGCSPRAPRADLDQPKFFTFDSPAELPSRTPRKKRRRSRLVLYPETSRKYRPRVEHRSRAQRCLLLLVAIVGFQVLNAIENLDDNAQRYDLDGLEKALQRAVFGQPAAVSRIVALMRDYLATHVHSRPLLLALHGPSGVGKSHVGRLLARHFRSVLEDSALVLQYHARHHCPEARAAQDCREELARRVADVVARAEAEEKTPLLVLDDVELMPRPLLDELHGFLQPQRSHHFHNAIYVLLSGAGGAEVTRFVLQNASRALPLRPDGFRSAEAAAAQAEEDLRASLLAVLSREHPLWQAAAIVPFLLLDKRDVVSCFRDEMAGEGFFPDQARAENLAAQLSFYRVAGREFAVTGCKQVVATVNLL [TOR4A]	0.137	0.0625
MDSPGYNCFVDKDKMDAAIQDLGPKELSCTELQELKQLARQGYWAQSHALRGKVYQRLIRDIPCRTVTPDASVYSDIVGKIVGKHSSSCLPLPEFVDNTQVPSYCLNARGEGAVRKILLCLANQFPDISFCPALPAVVALLLHYSIDEAECFEKACRILACNDPGRRLIDQSFLAFESSCMTFGDLVNKYCQAAHKLMVAVSEDVLQVYADWQRWLFGELPLCYFARVFDVFLVEGYKVLYRVALAILKFFHKVRAGQPLESDSVKQDIRTFVRDIAKTVSPEKLLEKAFAIRLFSRKEIQLLQMANEKALKQKGITVKQKSVSLSKRQFVHLAVHAENFRSEIVSVREMRDIWSWVPERFALCQPLLLFSSLQHGYSLARFYFQCEGHEPTLLLIKTTQKEVCGAYLSTDWSERNKFGGKLGFFGTGECFVFRLQPEVQRYEWVVIKHPELTKPPPLMAAEPTAPLSHSASSDPADRLSPFLAARHFNLPSKTESMFMAGGSDCLIVGGGGGQALYIDGDLNRGRTSHCDTFNNQPLCSENFLIAAVEAWGFQDPDTQ [TBC1D24]	-0.273	-0.16
MDSPWDELALAFSRTSMFPFFDIAHYLVSVMAVKRQPGAAALAWKNPISSWFTAMLHCFGGGILSCLLLAEPPLKFLANHTNILLASSIWYITFFCPHDLVSQGYSYLPVQLLASGMKEVTRTWKIVGGVTHANSYYKNGWIVMIAIGWARGAGGTIITNFERLVKGDWKPEGDEWLKMSYPAKVTLLGSVIFTFQHTQHLAISKHNLMFLYTIFIVATKITMMTTQTSTMTFAPFEDTLSWMLFGWQQPFSSCEKKSEAKSPSNGVGSLASKPVDVASDNVKKKHTKKNE [TMEM38B]	-0.0322	-0.17
MDTKHFLPLDFSTQVNSSLTSPTGRGSMAAPSLHPSLGPGIGSPGQLHSPISTLSSPINGMGPPFSVISSPMGPHSMSVPTTPTLGFSTGSPQLSSPMNPVSSSEDIKPPLGLNGVLKVPAHPSGNMASFTKHICAICGDRSSGKHYGVYSCEGCKGFFKRTVRKDLTYTCRDNKDCLIDKRQRNRCQYCRYQKCLAMGMKREAVQEERQRGKDRNENEVESTSSANEDMPVERILEAELAVEPKTETYVEANMGLNPSSPNDPVTNICQAADKQLFTLVEWAKRIPHFSELPLDDQVILLRAGWNELLIASFSHRSIAVKDGILLATGLHVHRNSAHSAGVGAIFDRVLTELVSKMRDMQMDKTELGCLRAIVLFNPDSKGLSNPAEVEALREKVYASLEAYCKHKYPEQPGRFAKLLLRLPALRSIGLKCLEHLFFFKLIGDTPIDTFLMEMLEAPHQMT [RXRA]	0.173	-0.151
MEAAETEAEAAALEVLAEVAGILEPVGLQEEAELPAKILVEFVVDSQKKDKLLCSQLQVADFLQNILAQEDTAKGLDPLASEDTSRQKAIAAKEQWKELKATYREHVEAIKIGLTKALTQMEEAQRKRTQLREAFEQLQAKKQMAMEKRRAVQNQWQLQQEKHLQHLAEVSAEVRERKTGTQQELDRVFQKLGNLKQQAEQERDKLQRYQTFLQLLYTLQGKLLFPEAEAEAENLPDDKPQQPTRPQEQSTGDTMGRDPGVSFKAVGLQPAGDVNLP [ZWINT]	-0.0767	0.896
MEAKTLGTVTPRKPVLSVSARKIKDNAADWHNLILKWETLNDAGFTTANNIANLKISLLNKDKIELDSSSPASKENEEKVCLEYNEELEKLCEELQATLDGLTKIQVKMEKLSSTTKGICELENYHYGEESKRPPLFHTWPTTHFYEVSHKLLEMYRKELLLKRTVAKELAHTGDPDLTLSYLSMWLHQPYVESDSRLHLESMLLETGHRAL [CINP]	0.148	0.525
MEDKRNIQIIEWEHLDKKKFYVFGVAMTMMIRVSVYPFTLIRTRLQVQKGKSLYHGTFDAFIKILRADGITGLYRGFLVNTFTLISGQCYVTTYELTRKFVADYSQSNTVKSLVAGGSASLVAQSITVPIDVVSQHLMMQRKGEKMGRFQVRGNPEGQGVVAFGQTKDIIRQILQADGLRGFYRGYVASLLTYIPNSAVWWPFYHFYAEQLSYLCPKECPHIVFQAVSGPLAAATASILTNPMDVIRTRVQVEGKNSIILTFRQLMAEEGPWGLMKGLSARIISATPSTIVIVVGYESLKKLSLRPELVDSRHW [SLC25A44]	-0.146	-0.117
MEEGNNNEEVIHLNNFHCHRGQEWINLRDGPITISDSSDEERIPMLVTPAPQQHEEEDLDDDVILTEDDSEDDYGEFLDLGPPGISEFTKPSGQTEREPKPGPSHNQAANDIVNPRSEQKVIILEEGSLLYTESDPLETQNQSSEDSETELLSNLGESAALADDQAIEEDCWLDHPYFQSLNQQPREITNQVVPQERQPEAELGRLLFQHEFPGPAFPRPEPQQGGISGPSSPQPAHPLGEFEDQQLASDDEEPGPAFPMQESQEPNLENIWGQEAAEVDQELVELLVKETEARFPDVANGFIEEIIHFKNYYDLNVLCNFLLENPDYPKREDRIIINPSSSLLASQDETKLPKIDFFDYSKLTPLDQRCFIQAADLLMADFKVLSSQDIKWALHELKGHYAITRKALSDAIKKWQELSPETSGKRKKRKQMNQYSYIDFKFEQGDIKIEKRMFFLENKRRHCRSYDRRALLPAVQQEQEFYEQKIKEMAEHEDFLLALQMNEEQYQKDGQLIECRCCYGEFPFEELTQCADAHLFCKECLIRYAQEAVFGSGKLELSCMEGSCTCSFPTSELEKVLPQTILYKYYERKAEEEVAAAYADELVRCPSCSFPALLDSDVKRFSCPNPHCRKETCRKCQGLWKEHNGLTCEELAEKDDIKYRTSIEEKMTAARIRKCHKCGTGLIKSEGCNRMSCRCGAQMCYLCRVSINGYDHFCQHPRSPGAPCQECSRCSLWTDPTEDDEKLIEEIQKEAEEEQKRKNGENTFKRIGPPLEKPVEKVQRVEALPRPVPQNLPQPQMPPYAFAHPPFPLPPVRPVFNNFPLNMGPIPAPYVPPLPNVRVNYDFGPIHMPLEHNLPMHFGPQPRHRF [RNF216]	-0.195	-0.122
MEGAAAREARGTETPRASAPPPAPSEPPAAPRARPRLVFRTQLAHGSPTGKIEGFTNVRELYAKIAEAFGIAPTEILFCTLNSHKVDMQKLLGGQIGLEDFIFAHVRGETKEVEVTKTEDALGLTITDNGAGYAFIKRIKEGSIINRIEAVCVGDSIEAINDHSIVGCRHYEVAKMLRELPKSQPFTLRLVQPKRAFDMIGQRSRSSKCPVEAKVTSGRETLRLRSGGAATVEEAPSEFEEEASRKVDDLLESYMGIRDPELASTMVETSKKTASAQEFARCLDSVLGEFAFPDEFVVEVWAAIGEAREACG [GIPC3]	0.0786	-0.0196
MEGDGVPWGSEPVSGPGPGGGGMIRELCRGFGRYRRYLGRLRQNLRETQKFFRDIKCSHNHTCLSSLTGGGGAERGPAGDVAETGLQAGQLSCISFPPKEEKYLQQIVDCLPCILILGQDCNVKCQLLNLLLGVQVLPTTKLGSEESCKLRRLRFTYGTQTRVSLALPGQYELVHTLVAHQGNWETIPEEDLEVQENNEDAAHVLAELEVTMHHALLQEVDVVVAPCQGLRPTVDVLGDLVNDFLPVITYALHKDELSERDEQELQEIRKYFSFPVFFFKVPKLGSEIIDSSTRRMESERSPLYRQLIDLGYLSSSHWNCGAPGQDTKAQSMLVEQSEKLRHLSTFSHQVLQTRLVDAAKALNLVHCHCLDIFINQAFDMQRDLQITPKRLEYTRKKENELYESLMNIANRKQEEMKDMIVETLNTMKEELLDDATNMEFKDVIVPENGEPVGTREIKCCIRQIQELIISRLNQAVANKLISSVDYLRESFVGTLERCLQSLEKSQDVSVHITSNYLKQILNAAYHVEVTFHSGSSVTRMLWEQIKQIIQRITWVSPPAITLEWKRKVAQEAIESLSASKLAKSICSQFRTRLNSSHEAFAASLRQLEAGHSGRLEKTEDLWLRVRKDHAPRLARLSLESCSLQDVLLHRKPKLGQELGRGQYGVVYLCDNWGGHFPCALKSVVPPDEKHWNDLALEFHYMRSLPKHERLVDLHGSVIDYNYGGGSSIAVLLIMERLHRDLYTGLKAGLTLETRLQIALDVVEGIRFLHSQGLVHRDIKLKNVLLDKQNRAKITDLGFCKPEAMMSGSIVGTPIHMAPELFTGKYDNSVDVYAFGILFWYICSGSVKLPEAFERCASKDHLWNNVRRGARPERLPVFDEECWQLMEACWDGDPLKRPLLGIVQPMLQGIMNRLCKSNSEQPNRGLDDST [DSTYK]	0.0887	-0.242
MEGVELKEEWQDEDFPIPLPEDDSIEADILAITGPEDQPGSLEVNGNKVRKKLMAPDISLTLDPSDGSVLSDDLDESGEIDLDGLDTPSENSNEFEWEDDLPKPKTTEVIRKGSITEYTAAEEKEDGRRWRMFRIGEQDHRVDMKAIEPYKKVISHGGYYGDGLNAIVVFAVCFMPESSQPNYRYLMDNLFKYVIGTLELLVAENYMIVYLNGATTRRKMPSLGWLRKCYQQIDRRLRKNLKSLIIVHPSWFIRTLLAVTRPFISSKFSQKIRYVFNLAELAELVPMEYVGIPECIKQVDQELNGKQDEPKNEQ [BNIP2]	0.0256	-0.366
